From US11110182B2, “Multifunctional RNA nanoparticles and methods for treating cancer and therapeutic resistant cancer” (University of Cincinnati, priority 2016, dated 2021)

Test system: BT474 cells
Test: In vitro mammosphere culture assay, BT474 cells
Assay type: cell-based, human
Description: FIG. 4A) BT474 cells were treated with pRNA nanoparticles in combination with vehicle or 1 μM 4-hydroxy-tamoxifen (4-OHT) as indicated for 48 h, and assayed for cell viability by MTT assay. FIG. 4B) Cells were treated as above and the migration and FIG. 4C) invasion capabilities were examined. FIG. 4D) Cells were treated as above and assayed for in vitro mammosphere formation. FIG. 4E) The number of mammospheres was counted, and FIG. 4F) the mammosphere size was calculated. Scale bar: 10 μm.
Migration and metastasis assay. The 8-μm-pore-size polycarbonate membrane, which separates the two chambers of a 6.5-mm Transwell (Costar), was coated with or without 1:8 DMEM-diluted Matrigel (Corning). Transwell assay was performed as previously described.^57 Briefly, BT474 cells were treated with pRNAs alone or together with 4-hydroxy-tamoxifen (4-OHT) for 48 h and starved with serum-free DMEM containing 0.2% BSA overnight. On the next day, cells were collected and 2×10^5 cells were seeded to the upper chamber of Transwell. The lower chamber was filled with 600 μL DMEM medium containing 10% FBS. After incubation at 37° C. for 24 h, cells on the membranes were fixed and stained with 0.1% crystal violet in 20% ethanol solution. Cells at top side of membranes were removed completely, and cells at the bottom side were examined with an Olympus SZX12 microscope and counted. • Mammosphere culture and breast cancer stem cell analyses. BT474 cells were treated with pRNAs for 48 h. Then, cells were suspended in DMEM/F12 medium supplemented with 1×B27 (Thermo Fisher), 20 ng/mL bFGF and 20 ng/mL EGF (R&D), and added into 24-well ultralow attachment plates. After treatment with or without 1 μM 4-OHT for 7 days, mammosphere formation was recorded using an Axiovert S100 TV inverted microscope (Zeiss). Xenograft tumor tissues were cut into small pieces and digested with trypsin and collagenase at 37° C. for 1 h, and tumor cells were collected and rinsed with pre-cold PBS. All cells were stained with FITC-conjugated anti-CD44 antibody and PE-conjugated anti-CD24 antibody (BD Pharmingen) in the dark on ice for 30 min. After resuspension with 0.5 mL PBS buffer, CD44^+/CD24^−/low cell population was analyzed by flow cytometry. • Orthotopic xenograft breast tumor mouse model, in vivo imaging and anti-tumor therapy. […] The tumor volume was monitored every 3 days, and tumor size was calculated using the formula: volume=0.5×(width)^2×(length). […] After the tumor weights were recorded, part of the tumor tissues were digested with trypsin and collagenase, lysed for extraction of total proteins and RNAs, or fixed in 10% neutral buffered formalin along with organ tissues, respectively, for further western blot, real-time PCR and IHC studies, etc. […]

[1] = BT474, in combination with tamoxifen (1 μM 4-OHT, 7 days)

B1: pRNA-HER2apt-siMED1: 3-WJ pRNA nanoparticle bearing a HER2-targeting RNA aptamer and two different MED1 siRNAs; strands p1 SEQ ID NO: 3, p2 SEQ ID NO: 4 (nucleic acid)
chain 1: GGACAGUGAAAGUGAGUCAAAGGAUCAAUCAUGGCCAAAGAUGUUACUUUGAGAGCCUU
chain 2: GGCUCUCAAAGUAACAUCUAAGGCCAUGUGUAUGUGGGGGGAGGACGAUGCGGUCUGCUGUGCUUGAUAUGCCCCAGACGACUCGCCCCCCACAUACUUUGUUGAUCCAAUGACUCACUUUCACUGUCCUU
modifications: 2'-F modification; third strand may lack entry; pRNA-HER2apt-siMED1, p1; pRNA-HER2apt-siMED1, p2
greatly reduced: number of mammosphere formation [1] | size of mammospheres [1] | number of mammosphere formation (BT474, nanoparticles alone) | size of mammospheres (BT474, nanoparticles alone)
